The results in this text go back to publication PMC4072508, “Genome-Wide Prediction and Validation of Peptides That Bind Human Prosurvival Bcl-2 Proteins” (PLoS Computational Biology, 2014).

This assay addresses Bcl-xL, Q07817. Put plainly: peptide SPOT array, c-Myc-tagged receptor at 1 uM or 100 nM, anti-c-Myc-Cy3.

Sequence of Bcl-xL, Q07817 (Q07817 1-209): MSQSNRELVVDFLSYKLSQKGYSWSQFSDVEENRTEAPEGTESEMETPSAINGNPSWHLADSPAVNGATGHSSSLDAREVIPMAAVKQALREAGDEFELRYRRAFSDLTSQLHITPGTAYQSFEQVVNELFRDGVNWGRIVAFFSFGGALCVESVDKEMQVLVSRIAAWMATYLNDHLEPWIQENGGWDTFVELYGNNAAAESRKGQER

In the case of SGEFREIGTVIDQIAETLWEQVFSKL [ATL2], the SPOT signal as a fraction of Bim BH3's signal on the same receptor and array is 0.03.
NKDGKSVSNRDRRLSDNCGGKVLSIT [KIAA0430]: the SPOT signal as a fraction of Bim BH3's signal on the same receptor and array stood at 0.22.
On to YKGHREIARYDLEQGAQVNRRSAKGN, for which the SPOT signal as a fraction of Bim BH3's signal on the same receptor and array is 1.82.
With IERMIHFGRELQAMSEQLRRDCGKNT [RANBP9], the SPOT signal as a fraction of Bim BH3's signal on the same receptor and array was 0.06.
Turning to VIKQRRLPDQDSKLADRIQLSGRYYL [RAPGEF2], the SPOT signal as a fraction of Bim BH3's signal on the same receptor and array was 1.24.
Molecule YRDLPLAAVDLSTAGSQLLSNLDEDY [C15orf27] registered an SPOT signal as a fraction of Bim BH3's signal on the same receptor and array of 0.02.
As for SAKLGKSSSLLTQTSEECNGILTEKM [ZNF396], the figure is 0.02.
The molecule RYRHGAPAEQDRHLADMLTTKWATLQ showed an SPOT signal as a fraction of Bim BH3's signal on the same receptor and array of 0.71.
RLRHDEIITLLKNVGERVVLEVEYEL [GRIP2] returned an SPOT signal as a fraction of Bim BH3's signal on the same receptor and array of 0.03.
As for DLSSTFVSLALRKVLDWPLSARREKG [TTC31], the figure is 0.17; as for RGRTRGWVQTDARMSRRTRGPVERAA [C6orf223], 0.91.
LEKQNNSASDLHEISNEILRIIERTG [GPR112] showed an SPOT signal as a fraction of Bim BH3's signal on the same receptor and array of 0.02.
Take LAELQQRSDQLLDMSSTFNKTTQNLA [VAMP5]: the SPOT signal as a fraction of Bim BH3's signal on the same receptor and array is 0.02.
As for RYRHGAPAEQLRHLLDMLTTKWATLQ, the figure is 0.97.
ARELEEISERLEEASGATSAQIEMNK [MYH13] had an SPOT signal as a fraction of Bim BH3's signal on the same receptor and array of 0.02.
On to KTRADSVANKLGSFSKTLGIKLKKNM [OTUD7A], for which the SPOT signal as a fraction of Bim BH3's signal on the same receptor and array is 0.87.
NEEGQQFALKDHRLGRTSFRNLKNKR [RIOK2] displayed an SPOT signal as a fraction of Bim BH3's signal on the same receptor and array of 1.05.
KPRMSNTSFVIQHFADKVEYKCEGFL [MYO5C]: the SPOT signal as a fraction of Bim BH3's signal on the same receptor and array amounted to 0.04.
AERHKQEADDIVRVAKTANDTSTEAY [LAMC1] yielded an SPOT signal as a fraction of Bim BH3's signal on the same receptor and array of 0.02.
In turn, AYTMERSARQIMHTAMKYNLGLDLRT [GLUD2] showed an SPOT signal as a fraction of Bim BH3's signal on the same receptor and array of 0.19.
FPDARDMVRYLGDFADTLGLRVQYNT [FOXRED2] registered an SPOT signal as a fraction of Bim BH3's signal on the same receptor and array of 0.03.
To AKIIGNNVKKLQKFASTVKMWVFEET [GPD1L] belongs 0.07; to AHKARALARLLRQTALAAFSDFKRLQ [FAM43B], 0.65; to SSDVIAVCQSLRQMAEKCQQDPESCW [MMS19], 0.02.
On to YIEYLKSSDRLDEAAQRLATVVNDER [XAB2], for which the SPOT signal as a fraction of Bim BH3's signal on the same receptor and array was 0.03.
Molecule LQETTLVANQLREAASRLKWTTNTGP [MAN2B1] had an SPOT signal as a fraction of Bim BH3's signal on the same receptor and array of 0.06.
Consider SCMATVIHNPDKALGDQFYKEAIEHC [DPF3], for which the SPOT signal as a fraction of Bim BH3's signal on the same receptor and array stood at 0.02.
NKQLRKETESLRKILLEAQKKAKVKI: the SPOT signal as a fraction of Bim BH3's signal on the same receptor and array amounted to 0.31.
In turn, NKQLRKETESDRKIALEAQKKAKVKI registered an SPOT signal as a fraction of Bim BH3's signal on the same receptor and array of 0.32.
Consider LREVRESIRFLRQVGRDWVQRRREAL [CYP46A1], for which the SPOT signal as a fraction of Bim BH3's signal on the same receptor and array was 0.8.
For HNQLTTVPERLSNCSRSLKNLILKNN [TLR7], the SPOT signal as a fraction of Bim BH3's signal on the same receptor and array was determined as 0.29.
For the molecule SQATGELADLIQQLSEKFGKNLNKDH [TRPC7], the SPOT signal as a fraction of Bim BH3's signal on the same receptor and array is 0.03.
Regarding LVNIRKDTLRLVKCAEEVKSPGEEAS [RNF157], the SPOT signal as a fraction of Bim BH3's signal on the same receptor and array amounted to 0.03.
YGRLRPRARSLSKALTAINWLTKKFL [MYO15A] showed an SPOT signal as a fraction of Bim BH3's signal on the same receptor and array of 0.94.
In the case of LGRTGQVCLFDKRGADQHALDQEQRD [ACAP3], the SPOT signal as a fraction of Bim BH3's signal on the same receptor and array was 0.08.
In turn, ASKLKGAAVKLADFGLAIEVEGEQQA [CAMK2A] had an SPOT signal as a fraction of Bim BH3's signal on the same receptor and array of 0.03.
AIKSQRMVQNLLSLARKICERVHRSP [ZBED4] returned an SPOT signal as a fraction of Bim BH3's signal on the same receptor and array of 0.26.
As to TFETQEDAQKILQEAEKLNYKDKKLN [BOLL], the SPOT signal as a fraction of Bim BH3's signal on the same receptor and array is 0.02.
EEQLEKLIKKLRKASEGLNSTLKDHI [CCDC76] had an SPOT signal as a fraction of Bim BH3's signal on the same receptor and array of 0.03.
QAEADHLGKELQSVSAKLQAQVEENE [GOLGA6L1]: the SPOT signal as a fraction of Bim BH3's signal on the same receptor and array came to 0.02.
NKQLRKETESLRKIALEAQKKAKVKI had an SPOT signal as a fraction of Bim BH3's signal on the same receptor and array of 0.5.
The molecule GFANHDVVEVLRNALQVVHLTLVRRK [INADL] came in with an SPOT signal as a fraction of Bim BH3's signal on the same receptor and array of 0.18.
QEQLLTLASILREDGKVFDEKVYYTA [HEBP2] showed an SPOT signal as a fraction of Bim BH3's signal on the same receptor and array of 0.03.
To KSRLVQQSKADKELADELQERCQRPA [TRIM58] belongs 0.05; to YKGHREIARYLLEQGAQVNRRSAKGN, 1.44; to ILRHKDIIDDLVKSGHKIMTACSEEE [DST], 0.03.
As for DTIFHRAAVRLRDLGGAILRHARRQA [BRPF3], the figure is 0.9.
As for YEHLRQFCLELNGLAVKLQSECHPDT [MOBKL3], the SPOT signal as a fraction of Bim BH3's signal on the same receptor and array turned out to be 0.03.
In turn, GQISDEVAERLMTIAYESGVNLFDTA [KCNAB1] displayed an SPOT signal as a fraction of Bim BH3's signal on the same receptor and array of 0.02.
In turn, GHDATEDARTILELARYFLKHGPKKI [XXXX] had an SPOT signal as a fraction of Bim BH3's signal on the same receptor and array of 0.11.
As for NRQLANMVNNLKEISQEAREGTQGER [TRIM21], the SPOT signal as a fraction of Bim BH3's signal on the same receptor and array is 0.03.
As for AHGVRDVSKELVGLAEHAATRLRFTK [TMEM151A], the SPOT signal as a fraction of Bim BH3's signal on the same receptor and array stood at 0.1.
